{"source": "patent US7919104B2", "about": "“Functional epitopes of Streptococcus pneumoniae PsaA antigen and uses thereof” (priority 2005, dated 2011)", "key": {"[1]": {"tested_on": "Pneumococci (Pnc)", "assay": "Rabbit immunization with MAP of P4: serum inhibition of adherence of Pneumococci to Detroit 562 cells (anti Pneumococcal activity)", "format": "in vivo, Streptococcus pneumoniae", "from_the_text": "The MAPs consist of two arms, each consisting of SEQ ID NO:1 linked via lys or nle-lys to a resin.\nAssessment of Serum Samples: • 1) Inhibition of adherence of P4 coated fluorescent beads to Detroit 562 cells (in vitro; tissue culture) to detect the presence of anti P4 antibodies in serum. • 2) Inhibition of adherence of PsaA coated fluorescent beads to Detroit 562 cells (in vitro; tissue culture) to detect the presence of anti PsaA antibodies in the serum. • 3) Inhibition of adherence of Pneumococci (Pnc) to Detroit 562 cells (in vitro; tissue culture) to detect the presence of anti Pnc antibodies in serum. Immunization with P4E—Analyses of Rabbit Sera for Anti P4 and Anti Pneumococcal (Pnc) Antibody: Animal 465"}, "[2]": {"target": "T1, P4 coated fluorescent beads (Streptococcus pneumoniae serotype 4, UniProt P0A4G2, D258K/D259R)", "T1 sequence (P0A4G2 251-278 D258K/D259R)": "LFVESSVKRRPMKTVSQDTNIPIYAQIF", "assay": "Rabbit immunization with MAP of P4: serum inhibition of adherence of P4 coated fluorescent beads to Detroit 562 cells (anti P4 activity)", "format": "in vivo"}, "[3]": {"conditions": "rabbit serum 1:1000, Bleed # 1 (Day 28)"}, "[4]": {"conditions": "rabbit serum 1:1000, Bleed # 2 (Day 42)"}, "[5]": {"conditions": "rabbit serum 1:8000, Bleed # 1 (Day 28)"}, "[6]": {"conditions": "rabbit serum 1:8000, Bleed # 2 (Day 42)"}, "[7]": {"conditions": "rabbit serum 1:16000, Bleed # 2 (Day 42)"}, "[8]": {"conditions": "rabbit serum 1:32000, Bleed # 1 (Day 28)"}, "[9]": {"conditions": "rabbit serum 1:10, Bleed # 1 (Day 28)"}, "[10]": {"conditions": "rabbit serum 1:10, Bleed # 2 (Day 42)"}, "[11]": {"conditions": "rabbit serum 1:100, Bleed # 1 (Day 28)"}, "[12]": {"conditions": "rabbit serum 1:16000, Bleed # 1 (Day 28)"}, "[13]": {"conditions": "rabbit serum 1:32000, Bleed # 2 (Day 42)"}, "[14]": {"conditions": "rabbit serum 1:64000, Bleed # 1 (Day 28)"}, "[15]": {"conditions": "rabbit serum 1:64000, Bleed # 2 (Day 42)"}, "[16]": {"conditions": "rabbit serum 1:128000, Bleed # 1 (Day 28)"}, "[17]": {"conditions": "rabbit serum 1:128000, Bleed # 2 (Day 42)"}, "[18]": {"conditions": "rabbit serum 1:256000, Bleed # 1 (Day 28)"}, "[19]": {"conditions": "rabbit serum 1:256000, Bleed # 2 (Day 42)"}, "[20]": {"conditions": "rabbit serum 1:512000, Bleed # 1 (Day 28)"}, "[21]": {"conditions": "rabbit serum 1:512000, Bleed # 2 (Day 42)"}}, "note": "Values joined by “and” are separate entries in the source; they are usually repeats but may differ in a detail not shown here. Equal values may be shown once. No end group written: not given here."}
{"substance": "P4E2: Multi Antigenic Peptide (MAP) of P4: two arms, each SEQ ID NO:1, linked via lys or nle-lys to a resin (chain 1 LFVESSVKRRPMKTVSQDTNIPIYAQIF; chain 2 LFVESSVKRRPMKTVSQDTNIPIYAQIF; not fully specified; also: MAP: two identical arms on a Lys or Nle-Lys core)", "values": [{"measurement": "Anti Pneumococcal activity, % inhibition of adherence (% IA)", "setting": "[1]; [3]", "value": "22% and 23%"}, {"measurement": "Anti Pneumococcal activity, % inhibition of adherence (% IA)", "setting": "[1]; [4]", "value": "33% and 20%"}, {"measurement": "Anti Pneumococcal activity, % inhibition of adherence (% IA)", "setting": "[1]; [5]", "value": "19% and 21%"}, {"measurement": "Anti Pneumococcal activity, % inhibition of adherence (% IA)", "setting": "[1]; [6]", "value": "22% and 16%"}, {"measurement": "Anti Pneumococcal activity, % inhibition of adherence (% IA)", "setting": "[1]; [7]", "value": "18% and 12%"}, {"measurement": "Anti Pneumococcal activity, % inhibition of adherence (% IA)", "setting": "[1]; [8]", "value": 0, "unit": "%"}, {"measurement": "Anti P4 activity, % inhibition of adherence (% IA)", "setting": "[2]; [9]", "value": "50% and 56%"}, {"measurement": "Anti P4 activity, % inhibition of adherence (% IA)", "setting": "[2]; [10]", "value": "74% and 75%"}, {"measurement": "Anti P4 activity, % inhibition of adherence (% IA)", "setting": "[2]; [11]", "value": 0, "unit": "%"}, {"measurement": "Anti P4 activity, % inhibition of adherence (% IA)", "setting": "[2]; rabbit serum 1:100, Bleed # 2 (Day 42)", "value": "0% and 3%"}, {"measurement": "Anti P4 activity, % inhibition of adherence (% IA)", "setting": "[2]; [3]", "value": 0, "unit": "%"}, {"measurement": "Anti P4 activity, % inhibition of adherence (% IA)", "setting": "[2]; [4]", "value": "4% and 1%"}, {"measurement": "Anti P4 activity, % inhibition of adherence (% IA)", "setting": "[2]; [5]", "value": 0, "unit": "%"}, {"measurement": "Anti P4 activity, % inhibition of adherence (% IA)", "setting": "[2]; [6]", "value": "1% and 2%"}, {"measurement": "Anti P4 activity, % inhibition of adherence (% IA)", "setting": "[2]; [12]", "value": 0, "unit": "%"}, {"measurement": "Anti P4 activity, % inhibition of adherence (% IA)", "setting": "[2]; [7]", "value": 0, "unit": "%"}, {"measurement": "Anti P4 activity, % inhibition of adherence (% IA)", "setting": "[2]; [8]", "value": 0, "unit": "%"}, {"measurement": "Anti P4 activity, % inhibition of adherence (% IA)", "setting": "[2]; [13]", "value": 0, "unit": "%"}, {"measurement": "Anti P4 activity, % inhibition of adherence (% IA)", "setting": "[2]; [14]", "value": 0, "unit": "%"}, {"measurement": "Anti P4 activity, % inhibition of adherence (% IA)", "setting": "[2]; [15]", "value": "2% and 4%"}, {"measurement": "Anti P4 activity, % inhibition of adherence (% IA)", "setting": "[2]; [16]", "value": 0, "unit": "%"}, {"measurement": "Anti P4 activity, % inhibition of adherence (% IA)", "setting": "[2]; [17]", "value": "4% and 0%"}, {"measurement": "Anti P4 activity, % inhibition of adherence (% IA)", "setting": "[2]; [18]", "value": 0, "unit": "%"}, {"measurement": "Anti P4 activity, % inhibition of adherence (% IA)", "setting": "[2]; [19]", "value": "4% and 5%"}, {"measurement": "Anti P4 activity, % inhibition of adherence (% IA)", "setting": "[2]; [20]", "value": 0, "unit": "%"}, {"measurement": "Anti P4 activity, % inhibition of adherence (% IA)", "setting": "[2]; [21]", "value": 0, "unit": "%"}]}
{"substance": "P4E: Multi Antigenic Peptide (MAP) of P4: two arms, each SEQ ID NO:1, linked via lys or nle-lys to a resin (chain 1 LFVESSVKRRPMKTVSQDTNIPIYAQIF; chain 2 LFVESSVKRRPMKTVSQDTNIPIYAQIF; also: MAP: two P4 arms on a Lys or Nle-Lys core)", "values": [{"measurement": "Anti Pneumococcal activity, % inhibition of adherence (% IA)", "setting": "[1]; [3]", "value": "24% and 38%"}, {"measurement": "Anti Pneumococcal activity, % inhibition of adherence (% IA)", "setting": "[1]; [5]", "value": "23% and 34%"}, {"measurement": "Anti Pneumococcal activity, % inhibition of adherence (% IA)", "setting": "[1]; [6]", "value": "13% and 21%"}, {"measurement": "Anti Pneumococcal activity, % inhibition of adherence (% IA)", "setting": "[1]; [12]", "value": "25% and 27%"}, {"measurement": "Anti Pneumococcal activity, % inhibition of adherence (% IA)", "setting": "[1]; [13]", "value": "14% and 16%"}, {"measurement": "Anti P4 activity, % inhibition of adherence (% IA)", "setting": "[2]; [9]", "value": "39% and 46%"}, {"measurement": "Anti P4 activity, % inhibition of adherence (% IA)", "setting": "[2]; [10]", "value": "43% and 48%"}, {"measurement": "Anti P4 activity, % inhibition of adherence (% IA)", "setting": "[2]; [11]", "value": "32% and 29%"}, {"measurement": "Anti P4 activity, % inhibition of adherence (% IA)", "setting": "[2]; [3]", "value": "33% and 41%"}, {"measurement": "Anti P4 activity, % inhibition of adherence (% IA)", "setting": "[2]; [4]", "value": "9% and 12%"}, {"measurement": "Anti P4 activity, % inhibition of adherence (% IA)", "setting": "[2]; [5]", "value": "6% and 9%"}, {"measurement": "Anti P4 activity, % inhibition of adherence (% IA)", "setting": "[2]; [6]", "value": "5% and 4%"}, {"measurement": "Anti P4 activity, % inhibition of adherence (% IA)", "setting": "[2]; [12]", "value": "12% and 15%"}, {"measurement": "Anti P4 activity, % inhibition of adherence (% IA)", "setting": "[2]; [7]", "value": "7% and 1%"}, {"measurement": "Anti P4 activity, % inhibition of adherence (% IA)", "setting": "[2]; [13]", "value": "9% and 5%"}, {"measurement": "Anti P4 activity, % inhibition of adherence (% IA)", "setting": "[2]; [14]", "value": "22% and 21%"}, {"measurement": "Anti P4 activity, % inhibition of adherence (% IA)", "setting": "[2]; [15]", "value": "6% and 3%"}, {"measurement": "Anti P4 activity, % inhibition of adherence (% IA)", "setting": "[2]; [16]", "value": "10% and 15%"}, {"measurement": "Anti P4 activity, % inhibition of adherence (% IA)", "setting": "[2]; [17]", "value": "5% and 9%"}, {"measurement": "Anti P4 activity, % inhibition of adherence (% IA)", "setting": "[2]; [18]", "value": "5% and 7%"}, {"measurement": "Anti P4 activity, % inhibition of adherence (% IA)", "setting": "[2]; [19]", "value": "0% and 3%"}, {"measurement": "Anti P4 activity, % inhibition of adherence (% IA)", "setting": "[2]; [20]", "value": "5% and 7%"}, {"measurement": "Anti P4 activity, % inhibition of adherence (% IA)", "setting": "[2]; [21]", "value": "6% and 3%"}]}
